B1: HDV Ribozyme (parent)
chain: GGCCGGCAUGGUCCCAGCCUCCUCGCUGGCGCCGGCUGGGCAACAUUCCGAGGGGACCGUCCCCUCGGUAAUGGCGAAUGGGACCCA

Here are results for 32 variants from the RNAGym collection of RNA variant scans (doi:10.7554/elife.80360).

The variants in this data set derive from B1. Put plainly: self-cleavage, relative activity (ratio to wild type); higher = more cleavage; co-transcriptional.
Turning to GGCCGGCAUGGUCCCAGCCUCCUCGCUAGCGCCGGCUGGGCAACAUUCCGAGGGGACCGUCCCCUCGGUAAUGGCGAAUGGGACCUA [G28A C86U], the self-cleavage was found to be 0.0369.

In the case of GGCCGGCAUGGUCCCAGCCUCCUCGCGGGCGCCGGCAGGGCAACAUUCCGAGGGGACCGUCCCCUCGGUAAUGGCGAAUGGGACCCA [U27G U37A], the self-cleavage stood at 0.119.

GGCCGGCAUGGUCCCAGCCUCCUCGCGGGCGCCGGCGGGGCAACAUUCCGAGGGGACCGUCCCCUCGGUAAUGGCGAAUGGGACCCA [U27G U37G]: the self-cleavage was 0.391.

Regarding GGCCGGCAUGGUCCCAGCCUCCUCGCUAGCGCCGGCUGGGCAAGAUUCCGAGGGGACCGUCCCCUCGGUAAUGGCGAAUGGGACCCA [G28A C44G], the self-cleavage stood at 0.

Regarding GGCCGGCAUGGUCCCAGCCUCCUCGCUAGCGCCGGCUGGGCAAAAUUCCGAGGGGACCGUCCCCUCGGUAAUGGCGAAUGGGACCCA [G28A C44A], the self-cleavage was 0.104.

As to GGCCGGCAUGGUCCCAGCCUCCUCGCGGGCGCCGGCUGGGCAACAUUCCGAGGGAACCGUCCCCUCGGUAAUGGCGAAUGGGACCCA [U27G G55A], the self-cleavage came out at 0.806.

Consider GGCCGGCAUGGUCCCAGCCUCCUCGCUAGCGUCGGCUGGGCAACAUUCCGAGGGGACCGUCCCCUCGGUAAUGGCGAAUGGGACCCA [G28A C32U], for which the self-cleavage amounted to 0.0845.

For GGCCGGCAUGGUCCCAGCCUCCUCGCUAGCGCCGGCUGGGCAACAUUCCGAGGGGACCGUCCCCUCGGUAAUGCCGAAUGGGACCCA [G28A G74C], the self-cleavage turned out to be 0.0845.

On to GGCCGGCAUGGUCCCAGCCUCCUCGCUAGCGCCGGCUGGGCAACAUUCCGAGGGGACCGUCCCCUCGGUAAUGUCGAAUGGGACCCA [G28A G74U], for which the self-cleavage stood at 0.0432.

Regarding GGCCGGCAUGGUCCCAGCCUCCUCGCUAGCGCCGGCUGGGCAACCUUCCGAGGGGACCGUCCCCUCGGUAAUGGCGAAUGGGACCCA [G28A A45C], the self-cleavage turned out to be 0.0744.

In the case of GGCCGGCAUGGUCCCAGCCUCCUCGCUAGCGCCGGCUGGGCAACAUUCCAAGGGGACCGUCCCCUCGGUAAUGGCGAAUGGGACCCA [G28A G50A], the self-cleavage was found to be 0.0906.

For GGCCGGCAUGGUCCCAGCCUCCUCGCUAGCGCCGGCUGGGCAACAUUCCUAGGGGACCGUCCCCUCGGUAAUGGCGAAUGGGACCCA [G28A G50U], the self-cleavage was 0.132.

With GGCCGGCAUGGUCCCAGCCUCCUCGCUAGCGCCGGCUGGGCAACAUUCCGAGGGGACCGUCCCCUCGGUAAUGGCCAAUGGGACCCA [G28A G76C], the self-cleavage was determined as 0.156.

Turning to GGCCGGCAUGGUCCCAGCCUCCUCGCUAGCGCCGGCUGGGCAACAUUCCGAGGGGACCGUCCCCUGGGUAAUGGCGAAUGGGACCCA [G28A C66G], the self-cleavage was 0.138.

Consider GGCCGGCAUGGUCCCAGCCUCCUCGCUAGCGCCGGCGGGGCAACAUUCCGAGGGGACCGUCCCCUCGGUAAUGGCGAAUGGGACCCA [G28A U37G], for which the self-cleavage was found to be 0.

For the variant GGCCGGCAUGGUCCCAGCCUCCUCGCUAGCGCCGGCUGGGCAACAUUCGGAGGGGACCGUCCCCUCGGUAAUGGCGAAUGGGACCCA [G28A C49G], the self-cleavage stood at 0.

Regarding GGCCGGCAUGGUCCCAGCCUCCUCGCUAGCGCCGGCUGGGCAACAUUCCGAGGGGACCGUCCCCUCGGUAAUGGCGAAUGGGAACCA [G28A C84A], the self-cleavage is 0.151.

As for GGCCGGCAUGGUCCCAGCCUCCUCGCGGGCGCCGGCUGGGCAACAUUCCCAGGGGACCGUCCCCUCGGUAAUGGCGAAUGGGACCCA [U27G G50C], the self-cleavage was determined as 0.6.

Turning to GGCCGGCAUGGUCCCAGCCUCCUCGCGGGCGCCGGCUGGGCAACAUUCCUAGGGGACCGUCCCCUCGGUAAUGGCGAAUGGGACCCA [U27G G50U], the self-cleavage came out at 0.88.

As to GGCCGGCAUGGUCCCAGCCUCCUCGCUAGCGCCGGCUGGGGAACAUUCCGAGGGGACCGUCCCCUCGGUAAUGGCGAAUGGGACCCA [G28A C41G], the self-cleavage was 0.151.

As for GGCCGGCAUGGUCCCAGCCUCCUCGCUAGCGCCGGCUGGGCAACAUUCCGAGGGGACCGUCCCCUCGGUAAUGGAGAAUGGGACCCA [G28A C75A], the self-cleavage turned out to be 0.121.

In the case of GGCCGGCAUGGUCCCAGCCUCCUCGCGGGCGCCGGCUGGGCAACAUUCCGAGGGGACCGUCCCCUCGGUAAUCGCGAAUGGGACCCA [U27G G73C], the self-cleavage worked out at 0.0978.

For GGCCGGCAUGGUCCCAGCCUCCUCGCUAGCGCCGGCUGGGCAACAUUCCGAGGGGACCGUCCCCUCGGUAAUGGCGAAUGGGACCCG [G28A A87G], the self-cleavage stood at 0.0492.

As to GGCCGGCAUGGUCCCAGCCUCCUCGCGGUCGCCGGCUGGGCAACAUUCCGAGGGGACCGUCCCCUCGGUAAUGGCGAAUGGGACCCA [U27G G29U], the self-cleavage came to 0.739.

Take GGCCGGCAUGGUCCCAGCCUCCUCGCGGCCGCCGGCUGGGCAACAUUCCGAGGGGACCGUCCCCUCGGUAAUGGCGAAUGGGACCCA [U27G G29C]: the self-cleavage came to 0.733.

Regarding GGCCGGCAUGGUCCCAGCCUCCUCGCUAGCGCCGGCUGGGCAACAUUCCGAGGGGACCGUCCCCUCGGUAAUGGCGAAUGGCACCCA [G28A G82C], the self-cleavage came to 0.0959.

On to GGCCGGCAUGGUCCCAGCCUCCUCGCUAGCGCCGGCUGGGCAACAUUCCGAGGGGACCAUCCCCUCGGUAAUGGCGAAUGGGACCCA [G28A G59A], for which the self-cleavage came out at 0.0573.

As for GGCCGGCAUGGUCCCAGCCUCCUCGCGGGCGCCGGCUGGGCAACAUUCCGAGGGGACCGUCCCCUCGCUAAUGGCGAAUGGGACCCA [U27G G68C], the self-cleavage was 0.87.

As for GGCCGGCAUGGUCCCAGCCUCCUCGCUAGAGCCGGCUGGGCAACAUUCCGAGGGGACCGUCCCCUCGGUAAUGGCGAAUGGGACCCA [G28A C30A], the self-cleavage is 0.149.

On to GGCCGGCAUGGUCCCAGCCUCCUCGCUAGUGCCGGCUGGGCAACAUUCCGAGGGGACCGUCCCCUCGGUAAUGGCGAAUGGGACCCA [G28A C30U], for which the self-cleavage amounted to 0.113.

For the variant GGCCGGCAUGGUCCCAGCCUCCUCGCUAGCGCCGGCUGGGCAACAUUCCGAGGGGACCGUCCCCUCGGUCAUGGCGAAUGGGACCCA [G28A A70C], the self-cleavage amounted to 0.0554.

For the variant GGCCGGCAUGGUCCCAGCCUCCUCGCUAGCGCCGGCUGGGCAACAUUACGAGGGGACCGUCCCCUCGGUAAUGGCGAAUGGGACCCA [G28A C48A], the self-cleavage is 0.0978.
